We go through two molecules from patent US20260125455A1 (CLEVELAND CLINIC FOUNDATION, published 2026).

In experiment [1] the target is T1, human complement protein C6 (human, UniProt P13671 22-934).
T1 construct: also called human C6; C6 antigen
In words: ELISA, expression supernatant, anti-human IgG (Fab-specific) detection. As to the method: The chimeric molecules, MoC601 HuG4K and MoC601 HuG1KFab, were tested for C6 binding in the form of expression supernatants. In this experiment, the human molecules were detected with an HRP-conjugated goat anti-human kappa chain reagent, which gave relative low signals. However, the binding of both chimeric molecules to C6 was confirmed. The EC₅₀ value for MoC601 HuG4K (0.43 nM) was higher than that of the mouse antibody (0.07 nM), though this was lower than in previous experiments. A further experiment was performed to find a more suitable anti-human antibody detection reagent. MoC601 HuG4K from expression supernatant was detected with three different secondary antibodies. Both anti-human IgG Fc-specific and Fab-specific detection gave higher signals than the anti-kappa chain reagent but the Fc-specific detection yielded a very low EC₅₀ (0.03 nM).
In general terms: In an ELISA, binding on a coated surface is turned into a signal by an enzyme label.

For experiment [2], the target named is T1, human complement protein C6. In words: ELISA, C6-coated wells, purified antibody.
The target is the same in experiment [3]. In words: BLI (Octet RED384), antibody on Protein G biosensors, C6 0.27-5 nM, 1:1 fit, experiment 2. On the procedure:
(§1) The binding of the purified chimeric molecules, MoC601 HuG4K and MoC601 HuG1KFab, was also confirmed by ELISA, where the anti-human IgG (Fab-specific) secondary reagent was used. The control mouse antibody bound as previously (EC₅₀ 0.11 nM). The EC₅₀ for purified MoC601 HuG4K (0.27 nM) was similar to that obtained for the MoC601 HuG4K supernatant sample above. […] The EC₅₀ value for the Fab molecule (0.48 nM) was higher than for the antibody, which would be expected since the Fab is unable to bind bivalently to the antigen on the well. A C6-binding assay was also set up on the Octet RED384 instrument. […] However, MoC601 MoG1K could be stably loaded onto anti-mouse Fc (AMC) biosensors. Concentrations of the mouse and chimeric antibodies were adjusted to give similar levels of loading on to the AMC and
Protein G biosensors respectively in subsequent experiments. There was no non-specific binding of C6 protein to unloaded sensors or sensors loaded with an isotype control antibody. […] The mouse and chimeric datasets were processed by subtracting the no antigen controls and the data were fitted to a 1:1 binding model. Binding curves giving Req/Rₘₐₓ ratios>90% or showing poor fitting were excluded from analysis. A second full kinetic experiment was performed with an adjusted concentration range (six points, 0.27-5 nM) and an extended dissociation step of 20 minutes.

The target is the same in experiment [4]. In words: BLI (Octet RED384), antibody on Protein G biosensors, C6 0.16-10 nM, 1:1 fit, experiment 1. As to the method:
as §1
Protein G biosensors respectively in subsequent experiments. There was no non-specific binding of C6 protein to unloaded sensors or sensors loaded with an isotype control antibody. A full kinetic experiment was run for purified MoC601 MoG1K and MoC601 HuG4K antibodies using seven concentrations of C6 (0.16-10 nM) and association and dissociation steps of 20 and 15 minutes respectively. The mouse and chimeric datasets were processed by subtracting the no antigen controls and the data were fitted to a 1:1 binding model. […]
(In general: In BLI a coated tip is dipped into the sample, and binding shifts an interference pattern.)

Experiment [5] has as its target human complement protein C5 (human, UniProt P01031 19-673; P01031 678-1676). In words: ELISA, C5-coated wells. As to the method:
The 20 purified antibodies were tested by ELISA for their abilities to bind human complement proteins C5, C5b6 and C6. The antibodies were divided into two sets for this analysis. MoC601 HuG4K and HuG4K isotype controls were included alongside each set, as was C601HFKC4 HuG4K (aka 3713) expression supernatant from the original transfection as an additional positive control. In addition, three humanized antibodies (C601HFKC4 HuG4K, C601HPKI HuG4K and C601HPKC4 HuG4K) were included within both sets to allow better comparison between the plates. The antibodies all show specificity for C6 with no detectable binding to C5. All humanized antibodies bind to C6 and to C6 as part of the C5b6 complex. The lower plateaus of the C5b6 complex binding curves are explained by less C6 protein being available for binding when wells are coated with C5b6 complex as opposed to C6 alone. […] The EC₅₀ values are included in the figure but slightly different plateau levels observed for the antibodies are influencing the apparent EC₅₀ values. However, it was noted that the EC₅₀ values tended to be lower on the plates for the second set of antibodies. For this reason, a subset of the 20 antibodies was tested in a further ELISA for binding to C6 and C5b6 complex.
Binding ELISAs used Nunc Maxisorp 384-well plates, wells coated with C6, C5b,6 complex or C5 (Complement Technology Inc, TX) and goat anti-human IgG (Fab specific) peroxidase secondary antibodies (Sigma-Aldrich, A0293) for detection. For the thermal stability assay, IgG supernatants were diluted to their EC₈₀ concentration, incubated at different temperatures for 10 min and C6 binding measured by ELISA with the binding signal plotted against temperature. Kinetics of C6 binding were measured by capturing antibodies from supernatant samples using Protein G biosensors and performing a 20 min association step with 2.5 nM C6 and a 20 min dissociation step using the Octet RED96. Precise kinetic measurements were obtained by surface plasmon resonance (Biacore 8K, Cytiva). The IgG were captured on a protein G sensor chip. Binding of C6 measured using a three-fold concentration series of C6 from 0.03 nM-25 nM and data were fitted using a 1:1 model in two independent experiments.

Experiment [6] deals with T1, human complement protein C6. In words: ELISA, C6-coated wells, large-scale purified antibody.

T1 sequence (P13671 22-934 limits assumed): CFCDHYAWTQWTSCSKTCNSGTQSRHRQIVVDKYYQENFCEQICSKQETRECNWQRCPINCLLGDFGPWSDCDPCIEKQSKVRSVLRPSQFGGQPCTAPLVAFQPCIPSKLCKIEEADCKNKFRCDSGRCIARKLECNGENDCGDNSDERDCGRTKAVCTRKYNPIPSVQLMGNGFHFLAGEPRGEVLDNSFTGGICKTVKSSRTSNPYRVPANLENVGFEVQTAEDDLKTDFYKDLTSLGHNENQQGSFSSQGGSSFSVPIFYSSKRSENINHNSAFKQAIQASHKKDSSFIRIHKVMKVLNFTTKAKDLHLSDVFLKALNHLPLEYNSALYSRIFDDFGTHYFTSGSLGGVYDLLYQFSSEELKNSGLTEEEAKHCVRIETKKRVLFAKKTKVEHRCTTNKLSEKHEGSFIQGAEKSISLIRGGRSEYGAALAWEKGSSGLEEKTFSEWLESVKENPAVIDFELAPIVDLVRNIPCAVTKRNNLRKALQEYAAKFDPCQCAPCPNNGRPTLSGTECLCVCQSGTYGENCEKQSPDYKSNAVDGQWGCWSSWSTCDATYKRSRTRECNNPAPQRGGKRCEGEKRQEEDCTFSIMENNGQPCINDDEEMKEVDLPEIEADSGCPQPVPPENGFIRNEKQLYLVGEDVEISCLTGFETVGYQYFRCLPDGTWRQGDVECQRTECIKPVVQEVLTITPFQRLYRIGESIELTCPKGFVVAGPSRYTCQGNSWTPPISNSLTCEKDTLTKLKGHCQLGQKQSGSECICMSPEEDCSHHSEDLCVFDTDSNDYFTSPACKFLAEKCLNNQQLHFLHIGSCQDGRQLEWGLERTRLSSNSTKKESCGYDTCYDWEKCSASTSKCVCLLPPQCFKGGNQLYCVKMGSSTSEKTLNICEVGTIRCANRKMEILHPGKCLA
Sequence of human complement protein C5 (P01031 19-673 limits assumed, chain 1 of 2): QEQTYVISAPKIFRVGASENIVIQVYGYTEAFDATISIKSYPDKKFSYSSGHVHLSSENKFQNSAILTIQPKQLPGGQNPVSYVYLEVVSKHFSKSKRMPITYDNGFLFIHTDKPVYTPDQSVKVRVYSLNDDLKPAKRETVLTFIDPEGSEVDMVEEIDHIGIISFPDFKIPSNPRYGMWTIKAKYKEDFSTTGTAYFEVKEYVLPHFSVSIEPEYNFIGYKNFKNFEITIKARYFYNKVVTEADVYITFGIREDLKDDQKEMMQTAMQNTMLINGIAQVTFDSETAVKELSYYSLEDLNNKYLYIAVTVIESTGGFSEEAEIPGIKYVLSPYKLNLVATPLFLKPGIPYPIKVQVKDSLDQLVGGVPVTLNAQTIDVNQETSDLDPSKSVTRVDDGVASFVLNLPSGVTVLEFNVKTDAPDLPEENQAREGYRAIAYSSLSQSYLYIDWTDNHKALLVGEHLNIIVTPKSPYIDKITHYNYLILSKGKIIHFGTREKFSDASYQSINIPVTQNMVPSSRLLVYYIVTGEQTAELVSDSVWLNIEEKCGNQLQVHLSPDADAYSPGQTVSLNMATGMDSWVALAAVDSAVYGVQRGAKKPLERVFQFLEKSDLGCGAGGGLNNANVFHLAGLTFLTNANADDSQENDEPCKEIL
Sequence of human complement protein C5 (P01031 678-1676 limits assumed, chain 2 of 2): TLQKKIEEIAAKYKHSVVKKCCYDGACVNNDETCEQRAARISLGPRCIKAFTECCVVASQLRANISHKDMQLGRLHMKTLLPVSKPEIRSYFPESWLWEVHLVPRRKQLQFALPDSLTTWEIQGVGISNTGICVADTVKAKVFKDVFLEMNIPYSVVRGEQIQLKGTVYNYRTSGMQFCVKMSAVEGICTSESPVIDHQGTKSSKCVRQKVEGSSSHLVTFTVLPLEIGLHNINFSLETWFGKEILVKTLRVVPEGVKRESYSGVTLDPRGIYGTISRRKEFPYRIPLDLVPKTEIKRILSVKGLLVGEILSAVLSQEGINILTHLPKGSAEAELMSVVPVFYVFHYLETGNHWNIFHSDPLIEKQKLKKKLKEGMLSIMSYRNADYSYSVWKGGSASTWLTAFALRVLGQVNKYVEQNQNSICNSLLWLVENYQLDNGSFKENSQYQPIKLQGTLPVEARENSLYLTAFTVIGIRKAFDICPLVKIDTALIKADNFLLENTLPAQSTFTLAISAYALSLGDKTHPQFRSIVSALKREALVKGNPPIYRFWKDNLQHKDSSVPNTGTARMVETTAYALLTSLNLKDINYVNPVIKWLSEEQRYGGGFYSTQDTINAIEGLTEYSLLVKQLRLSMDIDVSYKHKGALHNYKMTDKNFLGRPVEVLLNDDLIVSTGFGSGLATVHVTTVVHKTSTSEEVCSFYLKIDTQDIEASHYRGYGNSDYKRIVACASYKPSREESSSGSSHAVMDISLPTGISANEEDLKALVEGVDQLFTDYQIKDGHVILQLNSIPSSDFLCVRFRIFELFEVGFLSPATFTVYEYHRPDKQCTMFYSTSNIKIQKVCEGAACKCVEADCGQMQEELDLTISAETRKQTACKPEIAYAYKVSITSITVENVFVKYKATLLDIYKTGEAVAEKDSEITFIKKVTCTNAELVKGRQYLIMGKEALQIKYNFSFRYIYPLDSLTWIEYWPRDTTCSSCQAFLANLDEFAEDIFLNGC

B1: MoC601 HuG4K (chimeric C601 antibody) (antibody, human IgG4 S228P, kappa, V domains shown)
VH: QVQLQQSGAELVKPGASVKISCKASGYAFSDYWMNWVKQRPGKGLEWIGQIYPGDDDTNYNGKFKGKATLTADKSSSTAYMQLSSLTSEDSAVYFCAREGYYGYTYVEYFDVWGTGTTVTVSS
VL: QIVLTQSPAIMSVSPGEKVTLTCSASSSVSYMHWYQQKSGTSPKRWIYDTSKLASGVPARFSGSGSGTSYSLTISSMEAEDAATYYCQQWTSNPLTFGAGTKLELRR
notes: also called chimeric antibody; chimeric 1C9
The EC50 is the concentration that produces a half-maximal response. Read a low EC50 as greater potency. The term Kd denotes a measure of binding affinity in units of concentration. Low values mean a tighter complex, high ones a looser complex. One may read the kon as the second-order rate constant of association. A high value points to fast association. In the case of B1, the EC50 came to 0.3 nM in experiment [1] and 0.2 nM in experiment [2]. For the same molecule, the Kd in experiment [3] worked out at 0.35 nM; in experiment [4], 0.36 nM. For the same molecule, the kon in experiment [3] and in experiment [4] was 690000 M⁻¹ s⁻¹ throughout.

B2: C601HFKC4 HuG4K (antibody, human IgG4 S228P, kappa)
heavy: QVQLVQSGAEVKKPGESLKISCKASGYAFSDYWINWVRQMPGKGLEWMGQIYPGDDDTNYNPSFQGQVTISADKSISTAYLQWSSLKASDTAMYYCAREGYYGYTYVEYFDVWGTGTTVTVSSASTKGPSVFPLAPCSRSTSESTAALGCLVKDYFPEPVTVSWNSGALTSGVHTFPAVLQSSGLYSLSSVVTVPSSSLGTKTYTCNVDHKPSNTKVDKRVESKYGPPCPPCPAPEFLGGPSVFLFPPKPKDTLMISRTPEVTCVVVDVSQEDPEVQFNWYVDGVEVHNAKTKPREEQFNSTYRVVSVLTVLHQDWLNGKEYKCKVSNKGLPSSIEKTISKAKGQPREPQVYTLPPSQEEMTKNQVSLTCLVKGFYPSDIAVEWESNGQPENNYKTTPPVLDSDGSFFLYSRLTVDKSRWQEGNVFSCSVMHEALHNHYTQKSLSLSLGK
light: QIVLTQSPATLSLSPGERATLSCRASSSVSYLHWYQQKPGQSPRLWIYDTSKRATGIPARFSGSGSGTDYTLTISSLEPEDFAVYYCQQWTSNPLTFGQGTKLEIKRTVAAPSVFIFPPSDEQLKSGTASVVCLLNNFYPREAKVQWKVDNALQSGNSQESVTEQDSKDSTYSLSSTLTLSKADYEKHKVYACEVTHQGLSSPVTKSFNRGEC
notes: also called 3713; clone 3713
Take B2: the binding result in experiment [5] is recorded as “no binding”. Besides, the EC50 in experiment [6] amounted to 0.19 nM.
